Assay results taken from paper PMC9828552.

B1: AlaDH-FDH-His fusion protein (AlaDH domain) (Halomonas elongata DSM 2581) (protein)
chain: MKIAVPKEIKNHEYRVALTPSGARELVGRGHDVIVQAAAGEGAGFSDADFEAAGARLEADVAKLWDDAELILKVKEPQAEEVARLSAGQTLFTYLHLAAEESLTKGLLDSGATCIAYETITAPEGGLPLLAPMSTVAGRMAVQAGAHSLEKAQGGAGILLPGVPGVAPARVTVIGGGVVGENAARMALGLGAEVTVLDKSIPRLETLDDRYQGRMKTVFSTADALEEAVRESDLIIGAVLVPGAAAPKLITRDMLSDMKPGSVLVDVAIDQGGCFETSKPTTHAEPTYVVDGVVHYCVANMPGAVARTSTQALTNATLPFVVALADKGWQKALADDDHFAAGLNVHDGKLTYRAVAEAFGLEYVEAASLIG
B2: AlaDH-FDH-His fusion protein (FDH domain) ([Candida] boidinii) (protein)
chain: MKIVLVLYDAGKHAADEEKLYGCTENKLGIANWLKDQGHELITTSDKEGETSELDKHIPDADIIITTPFHPAYITKERLDKAKNLKLVVVAGVGSDHIDLDYINQTGKKISVLEVTGSNVVSVAEHVVMTMLVLVRNFVPAHEQIINHDWEVAAIAKDAYDIEGKTIATIGAGRIGYRVLERLLPFNPKELLYYDYQALPKEAEEKVGARRVENIEELVAQADIVTVNAPLHAGTKGLINKELLSKFKKGAWLVNTARGAICVAEDVAAALESGQLRGYGGDVWFPQPAPKDHPWRDMRNKYGAGNAMTPHYSGTTLDAQTRYAEGTKNILESFFTGKFDYRPQDIILLNGEYVTKAYGKHDKK
B3: WT FDH (CbFDH) ([Candida] boidinii) (protein)
chain: B2 chain

What was measured:
[1] = substrate: C[C@H](N)C(=O)O; test: purified protein; details: oxidative deamination, 1 mM NAD+, 100 mM NaHCO3 pH 10, 25 °C
[2] = substrate: O=CO; test: purified protein; details: 3 mM NAD+, 25 mM potassium phosphate pH 7.5, 25 °C

Row | Protein | Km [1] [mM] | kcat [1] [s⁻¹] | Km [2] [mM] | kcat [2] [s⁻¹]
1 | B1 | 11.4 ± 1.5 | 1.7 |  | 
2 | B2 |  |  | 7.8 ± 1.4 | 0.7
3 | B3 |  |  | 5.0 ± 1.0 | 1.3
